# From publication PMC4434323
# Legend:
# [1] = biological target: T1, Y61A9LA.9 (Y61A9LA.9) (Caenorhabditis elegans) (UniProt Q9N312)
# T1 sequence: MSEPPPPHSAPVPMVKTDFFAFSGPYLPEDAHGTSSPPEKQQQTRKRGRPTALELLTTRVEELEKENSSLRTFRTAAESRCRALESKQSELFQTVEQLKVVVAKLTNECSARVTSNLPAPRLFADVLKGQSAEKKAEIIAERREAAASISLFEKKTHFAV
# [2] = biological target: T2, dmd-6 (F13G11.1) (Caenorhabditis elegans) (UniProt O62159)
# T2 sequence: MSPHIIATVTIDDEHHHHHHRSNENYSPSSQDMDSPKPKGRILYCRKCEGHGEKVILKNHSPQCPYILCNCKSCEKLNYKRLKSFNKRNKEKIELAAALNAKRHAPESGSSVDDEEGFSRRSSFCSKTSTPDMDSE
# [3] = biological target: T3, ceh-26 (K12H4.1) (Caenorhabditis elegans) (UniProt P34522)
# T3 sequence: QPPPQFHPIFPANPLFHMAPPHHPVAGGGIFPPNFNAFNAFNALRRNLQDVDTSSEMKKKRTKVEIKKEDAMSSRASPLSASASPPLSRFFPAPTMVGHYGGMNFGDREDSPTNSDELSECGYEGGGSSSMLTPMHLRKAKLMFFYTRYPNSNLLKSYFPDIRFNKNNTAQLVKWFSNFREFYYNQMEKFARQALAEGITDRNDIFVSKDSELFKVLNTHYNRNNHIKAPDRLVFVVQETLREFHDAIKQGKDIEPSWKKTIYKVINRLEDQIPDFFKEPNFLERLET
# [4] = biological target: T4, ceh-52 (C07E3.5) (Caenorhabditis elegans) (UniProt Q17788)
# T4 sequence: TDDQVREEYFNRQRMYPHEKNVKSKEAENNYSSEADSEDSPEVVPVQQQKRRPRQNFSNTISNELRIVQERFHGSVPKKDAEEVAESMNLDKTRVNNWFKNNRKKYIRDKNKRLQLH
# [5] = biological target: T5, ceh-23 (ZK652.5) (Caenorhabditis elegans) (UniProt P34663)
# T5 sequence: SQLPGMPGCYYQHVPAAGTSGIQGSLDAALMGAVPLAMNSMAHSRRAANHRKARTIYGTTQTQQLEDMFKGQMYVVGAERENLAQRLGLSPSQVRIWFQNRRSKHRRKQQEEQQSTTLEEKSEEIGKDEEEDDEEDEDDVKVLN
# [6] = biological target: T6, eyg-1 (Y53C12C.1) (Caenorhabditis elegans) (UniProt O01996)
# T6 sequence: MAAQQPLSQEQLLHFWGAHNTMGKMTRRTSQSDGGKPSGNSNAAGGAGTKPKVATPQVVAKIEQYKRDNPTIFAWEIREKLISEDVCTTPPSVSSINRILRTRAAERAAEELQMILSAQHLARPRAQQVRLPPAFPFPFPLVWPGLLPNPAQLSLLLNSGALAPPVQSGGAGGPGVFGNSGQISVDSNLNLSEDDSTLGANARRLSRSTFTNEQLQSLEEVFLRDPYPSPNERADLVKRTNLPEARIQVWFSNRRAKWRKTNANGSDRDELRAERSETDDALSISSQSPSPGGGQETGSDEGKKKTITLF
# [7] = biological target: T7, pax-2 (K06B9.5) (Caenorhabditis elegans) (UniProt Q21263)
# T7 sequence: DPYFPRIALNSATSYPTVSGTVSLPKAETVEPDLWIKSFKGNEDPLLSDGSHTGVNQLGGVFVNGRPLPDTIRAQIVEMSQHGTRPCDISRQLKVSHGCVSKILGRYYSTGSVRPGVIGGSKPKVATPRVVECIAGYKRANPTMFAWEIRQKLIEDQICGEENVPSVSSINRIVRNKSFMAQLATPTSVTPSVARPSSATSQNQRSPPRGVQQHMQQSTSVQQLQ
# [8] = biological target: T8, ceh-51 (Y80D3A.3) (Caenorhabditis elegans) (UniProt Q9U1R1)
# T8 sequence: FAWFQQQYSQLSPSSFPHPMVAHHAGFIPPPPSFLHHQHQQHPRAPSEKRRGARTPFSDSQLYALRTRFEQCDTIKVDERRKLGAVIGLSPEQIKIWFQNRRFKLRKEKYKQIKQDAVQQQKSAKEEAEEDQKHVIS
# [9] = biological target: T9, die-1 (C18D1.1) (Caenorhabditis elegans) (UniProt A0A131MCR4)
# T9 sequence: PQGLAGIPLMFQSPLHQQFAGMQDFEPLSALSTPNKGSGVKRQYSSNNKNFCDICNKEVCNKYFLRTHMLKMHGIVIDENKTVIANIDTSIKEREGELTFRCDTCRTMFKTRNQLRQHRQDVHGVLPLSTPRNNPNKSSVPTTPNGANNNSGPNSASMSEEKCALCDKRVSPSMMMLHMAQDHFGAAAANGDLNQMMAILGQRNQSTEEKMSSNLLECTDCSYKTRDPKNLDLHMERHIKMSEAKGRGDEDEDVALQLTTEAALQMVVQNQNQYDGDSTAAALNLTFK
# [10] = biological target: T10, Y44A6D.3 (Y44A6D.3) (Caenorhabditis elegans) (UniProt Q9XXE0)
# T10 sequence: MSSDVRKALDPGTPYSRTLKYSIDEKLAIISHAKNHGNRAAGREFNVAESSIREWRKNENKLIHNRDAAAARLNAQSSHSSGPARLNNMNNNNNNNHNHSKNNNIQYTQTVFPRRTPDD
# [11] = biological target: T11, Y75B8A.6 (Y75B8A.6) (Caenorhabditis elegans) (UniProt A0A168H365)
# T11 sequence: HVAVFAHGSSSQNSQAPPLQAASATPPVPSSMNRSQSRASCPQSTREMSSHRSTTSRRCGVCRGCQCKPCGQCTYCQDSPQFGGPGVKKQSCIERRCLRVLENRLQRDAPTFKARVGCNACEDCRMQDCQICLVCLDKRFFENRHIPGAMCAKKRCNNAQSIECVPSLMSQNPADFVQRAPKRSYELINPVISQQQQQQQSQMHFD
# [12] = biological target: T12, efl-2 (Y48C3A.17) (Caenorhabditis elegans) (UniProt A5HWA8)
# T12 sequence: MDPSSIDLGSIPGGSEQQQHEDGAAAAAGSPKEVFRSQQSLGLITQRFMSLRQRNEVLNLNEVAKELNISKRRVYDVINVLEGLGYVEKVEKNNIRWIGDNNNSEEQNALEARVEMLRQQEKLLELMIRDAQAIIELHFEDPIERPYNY
# [13] = biological target: T13, tbx-38 (C24H11.3) (Caenorhabditis elegans) (UniProt Q9XVD5)
# T13 sequence: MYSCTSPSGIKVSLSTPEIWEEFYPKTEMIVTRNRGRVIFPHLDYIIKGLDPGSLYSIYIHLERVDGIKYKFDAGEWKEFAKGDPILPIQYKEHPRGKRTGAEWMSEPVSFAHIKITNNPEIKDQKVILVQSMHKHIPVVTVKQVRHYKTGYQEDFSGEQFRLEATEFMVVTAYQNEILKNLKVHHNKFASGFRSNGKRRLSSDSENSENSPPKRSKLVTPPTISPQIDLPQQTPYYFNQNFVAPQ
# [14] = biological target: T14, tbx-43 (Y46E12A.4) (Caenorhabditis elegans) (UniProt Q1T6W8)
# T14 sequence: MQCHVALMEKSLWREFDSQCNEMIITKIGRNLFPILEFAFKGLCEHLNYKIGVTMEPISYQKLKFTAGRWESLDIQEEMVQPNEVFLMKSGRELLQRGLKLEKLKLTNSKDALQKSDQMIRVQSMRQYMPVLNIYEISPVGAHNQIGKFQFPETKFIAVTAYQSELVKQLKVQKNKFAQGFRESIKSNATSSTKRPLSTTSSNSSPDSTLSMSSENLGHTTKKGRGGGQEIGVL
sequence,measurement,setting,value
AAAATAAT (double strand) [8-mer AAAATAAT],binding signal (PBM E-score (-0.5 to 0.5)),[1],0.451
AAATAAAT (double strand) [8-mer AAATAAAT],binding signal (PBM E-score (-0.5 to 0.5)),[1],0.452
AAATAATT (double strand) [8-mer AAATAATT],binding signal (PBM E-score (-0.5 to 0.5)),[1],0.457
AAATATAT (double strand) [8-mer AAATATAT],binding signal (PBM E-score (-0.5 to 0.5)),[1],0.452
same,binding signal (PBM E-score (-0.5 to 0.5)),[2],0.48
AACATCTT (double strand) [8-mer AACATCTT],binding signal (PBM E-score (-0.5 to 0.5)),[3],0.457
AACGTCTT (double strand) [8-mer AACGTCTT],binding signal (PBM E-score (-0.5 to 0.5)),[3],0.48
AAGAAAGT (double strand) [8-mer AAGAAAGT],binding signal (PBM E-score (-0.5 to 0.5)),[3],0.456
AAGACATT (double strand) [8-mer AAGACATT],binding signal (PBM E-score (-0.5 to 0.5)),[3],0.458
AAGAGTTA (double strand) [8-mer AAGAGTTA],binding signal (PBM E-score (-0.5 to 0.5)),[4],0.463
AAGATCTT (double strand) [8-mer AAGATCTT],binding signal (PBM E-score (-0.5 to 0.5)),[3],0.457
AATAATAA (double strand) [8-mer AATAATAA],binding signal (PBM E-score (-0.5 to 0.5)),[1],0.461
AATATATT (double strand) [8-mer AATATATT],binding signal (PBM E-score (-0.5 to 0.5)),[1],0.465
AATATTAA (double strand) [8-mer AATATTAA],binding signal (PBM E-score (-0.5 to 0.5)),[1],0.455
AATTAATT (double strand) [8-mer AATTAATT],binding signal (PBM E-score (-0.5 to 0.5)),[1],0.454
same,binding signal (PBM E-score (-0.5 to 0.5)),[5],0.492
same,binding signal (PBM E-score (-0.5 to 0.5)),[6],0.489
ACCATGAC (double strand) [8-mer ACCATGAC],binding signal (PBM E-score (-0.5 to 0.5)),[7],0.454
ACCGTGAC (double strand) [8-mer ACCGTGAC],binding signal (PBM E-score (-0.5 to 0.5)),[7],0.495
AGAGTTAA (double strand) [8-mer AGAGTTAA],binding signal (PBM E-score (-0.5 to 0.5)),[4],0.452
AGAGTTAT (double strand) [8-mer AGAGTTAT],binding signal (PBM E-score (-0.5 to 0.5)),[4],0.481
AGCGTGAC (double strand) [8-mer AGCGTGAC],binding signal (PBM E-score (-0.5 to 0.5)),[7],0.488
AGTGTTAT (double strand) [8-mer AGTGTTAT],binding signal (PBM E-score (-0.5 to 0.5)),[4],0.454
ATAACACC (double strand) [8-mer ATAACACC],binding signal (PBM E-score (-0.5 to 0.5)),[4],0.457
ATAACTCC (double strand) [8-mer ATAACTCC],binding signal (PBM E-score (-0.5 to 0.5)),[4],0.482
ATATTAAT (double strand) [8-mer ATATTAAT],binding signal (PBM E-score (-0.5 to 0.5)),[1],0.453
same,binding signal (PBM E-score (-0.5 to 0.5)),[8],0.467
ATTTAAAT (double strand) [8-mer ATTTAAAT],binding signal (PBM E-score (-0.5 to 0.5)),[1],0.47
same,binding signal (PBM E-score (-0.5 to 0.5)),[9],0.477
CAAGAAAA (double strand) [8-mer CAAGAAAA],binding signal (PBM E-score (-0.5 to 0.5)),[3],0.469
CCAAGAAA (double strand) [8-mer CCAAGAAA],binding signal (PBM E-score (-0.5 to 0.5)),[3],0.472
CCGCGCGG (double strand) [8-mer CCGCGCGG],binding signal (PBM E-score (-0.5 to 0.5)),[10],0.495
same,binding signal (PBM E-score (-0.5 to 0.5)),[11],0.465
CCGTGACC (double strand) [8-mer CCGTGACC],binding signal (PBM E-score (-0.5 to 0.5)),[7],0.484
CCGTGACG (double strand) [8-mer CCGTGACG],binding signal (PBM E-score (-0.5 to 0.5)),[7],0.489
CGCGCGCG (double strand) [8-mer CGCGCGCG],binding signal (PBM E-score (-0.5 to 0.5)),[11],0.476
same,binding signal (PBM E-score (-0.5 to 0.5)),[12],0.494
CGGTCACG (double strand) [8-mer CGGTCACG],binding signal (PBM E-score (-0.5 to 0.5)),[7],0.473
CGTCACGC (double strand) [8-mer CGTCACGC],binding signal (PBM E-score (-0.5 to 0.5)),[7],0.488
CGTGACCA (double strand) [8-mer CGTGACCA],binding signal (PBM E-score (-0.5 to 0.5)),[7],0.479
CGTGACGA (double strand) [8-mer CGTGACGA],binding signal (PBM E-score (-0.5 to 0.5)),[7],0.461
GAGTTATA (double strand) [8-mer GAGTTATA],binding signal (PBM E-score (-0.5 to 0.5)),[4],0.465
GCGCGCGC (double strand) [8-mer GCGCGCGC],binding signal (PBM E-score (-0.5 to 0.5)),[11],0.465
same,binding signal (PBM E-score (-0.5 to 0.5)),[12],0.495
GCGTGACC (double strand) [8-mer GCGTGACC],binding signal (PBM E-score (-0.5 to 0.5)),[7],0.486
GGAGTTAA (double strand) [8-mer GGAGTTAA],binding signal (PBM E-score (-0.5 to 0.5)),[4],0.464
GGCGTGAC (double strand) [8-mer GGCGTGAC],binding signal (PBM E-score (-0.5 to 0.5)),[7],0.468
GGGAGTTA (double strand) [8-mer GGGAGTTA],binding signal (PBM E-score (-0.5 to 0.5)),[4],0.459
GGGGTTAA (double strand) [8-mer GGGGTTAA],binding signal (PBM E-score (-0.5 to 0.5)),[4],0.454
GGTGTTAA (double strand) [8-mer GGTGTTAA],binding signal (PBM E-score (-0.5 to 0.5)),[4],0.459
same,binding signal (PBM E-score (-0.5 to 0.5)),[13],0.488
same,binding signal (PBM E-score (-0.5 to 0.5)),[14],0.492
GTCACGCA (double strand) [8-mer GTCACGCA],binding signal (PBM E-score (-0.5 to 0.5)),[7],0.481
GTCACGGA (double strand) [8-mer GTCACGGA],binding signal (PBM E-score (-0.5 to 0.5)),[7],0.453
TAAAATAA (double strand) [8-mer TAAAATAA],binding signal (PBM E-score (-0.5 to 0.5)),[1],0.453
TAACTCCA (double strand) [8-mer TAACTCCA],binding signal (PBM E-score (-0.5 to 0.5)),[4],0.475
TAACTCTA (double strand) [8-mer TAACTCTA],binding signal (PBM E-score (-0.5 to 0.5)),[4],0.459
